Results from article doi:10.1101/2024.08.01.606258.

Target: avGFP [GFP: P42212]
Assay: SEC

avGFP (from UniProt P42212 1-237) (natural protein)
stoichiometry N: 2
